In assay [1] the target is C3a (Homo sapiens (Human)) (UniProt P01024). As to the kind of experiment: cell-based or functional assay.
In assay [2] the target is C5a (Homo sapiens (Human)) (UniProt P01031). As to the kind of experiment: cell-based or functional assay.
Chain of C5a (Homo sapiens (Human)) (P01031 678-751 limits assumed): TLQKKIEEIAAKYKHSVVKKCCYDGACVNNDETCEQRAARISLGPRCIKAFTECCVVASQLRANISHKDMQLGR

Chain of C3a (Homo sapiens (Human)) (P01024 672-748 limits assumed): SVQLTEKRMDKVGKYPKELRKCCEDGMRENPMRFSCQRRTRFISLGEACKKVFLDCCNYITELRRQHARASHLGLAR

On to “TAFI activation peptide-CPN1-HSA (enzyme)”, for which the % Arg released (Arg LC-MS/MS, supernatant) in assay [1] is 72%; in assay [2] it was 14%.
